Consider six molecules from PMC6220335, “Molecular structure of promoter-bound yeast TFIID” (Nature Communications, 2018).

B1: Taf1 (TBP-associated factor 1), subunit of Komagataella phaffii TFIID (natural protein, UniProt F2QMX2 1-1010, looked up)
chain: MDVDFDNALNGQVGGFDQFFDGTTKHADNAIDFSDEEELADEEVGDAPQRRTDVDDEHKPPEGTYEMNLSGSEKEDLLFKNLEREASEGTELPLPTIGGLKVPNFDNNIGLNETISERNECNQISNSHFVKHLEKTMIRTQMLKYYYPSFQKSKPISFSSLFPPPLASFQLYDGRDCTPLLPLKALQEVDPDEKKIFKSSFSAHQSKGDKRSQSVKHIELMELESNNTQIPPRKQKETLKHLDRNIVLSTLSWDDTELLSDKLEERHNRNRTKPNFQQMQYDDWDVDTDMILEGTLDTSRLNLKLDMNDPHLLFLNQKHKPSPAGKMNARFPMNSKSFEMKFNISNDMQYQMLKDNYQSKIRSTIGNLSIDHSIPATILQTPFYKVKLSKQELRRFHRPVFNSRPNSTILFSKIKTRKKKKDRGKETKELFKKSVDLTLGDSASFFLLEYSEEQPVALSNFGMGSKLINYYRKLNDDDNSRPKLPVGETHVLGVQDRSPFWNFGFVEPGNLVPTFYNNMVRAPIFRHEPEETDFLLIRSSGGGISPRYFLRSLDHVFTVGQTFPVVDVPGPHSRKVTSTSKNRLKMIVYRVLNKNERHRLVVKDISIHFPDQNDMQNRQRLKEFMEYQKNGEDHGFWKIKGNEILPGFKEIQQMIQPEDIALLEAMQFGQLNLEDYDSLREETLIGQTTATTEEALQVQMAPWSTTKNFIQATQGKAMLQVHGIGDPSKKGEAISFLRISMKGGFKSSMEDIVEKAEQMDNKKSQGHSYNVAVQQKMYDEEISRVWYAQQRALSKTSDMMERELGPTEAPTASSVYDDQNQITEMAKTLEEFVLSPLQTTVSSVKPASIKEKKHMKITRMVRDQNGILQRRTQLVTDQKVIAAYIQRKQEQEKAEIDAEKISFTNDEEQNRRAKKILEEELERLEKSKERRIARKKLKEGLPVVSSLSNTDSDARLSGKGIGKGKSTSRRCATCGALGHIRTNKACPMYYSAMNKSNPNMSDLPVYDIQY
notes: Taf1, TFIID subunit of the yeast Komagataella phaffii (formerly Pichia pastoris); native subunit of the purified complex; also called KpTaf1; source: endogenous, K. phaffii nuclear extract; co-purified in TFIID by SBP-tagged Taf2 (streptavidin beads, sucrose gradient)
B2: Taf8, subunit of Komagataella phaffii TFIID (natural protein, UniProt F2QT15 1-517, looked up)
chain: MADKSDDNQSLVSVSSASSGKENPNSVGQRSMNPTLSHEEQHDQEVQERYNTGKDLNITSQPECVPAMEVALKASVLLILSSLGVQASSLSIDHLTYITTKYIDRLVSELHRSTEIQRRRTIAKRDVQLVVDRGILDLEDVTLEYERLKLTRKRVKPSIEKLSKYASELKESASSVQVSENDKDAFFFFDIAEKISEFMPLRMKRKNYIPKWMPVLPPEHTYVATPQFTEVISDPKELREQLTAESRLGEKALQHLIGTKIVEDKKEDVGNENDNDIDKEIHHGEIDVESDHNLEKGPNGETNGVQSQPPKSMVSSKRFDIVAHAKHRLSVLEKRKRHQEQLLENRRKEIDGLVGQYLGYYATKKIEPPVSDIIVNIMNTEYYHVSREISKSEHRKQKIQESQQLKRRKLEDELQQELEHQTEDIDFEFNFDEDDVDMNKNLNENLNENENDDEQVLIEEDTSFDITNGDIEKTNQETPFTNGSSKQWDSNNAILDSTNSEPEPEPPIADLFNVDSS
notes: Taf8, TFIID subunit of the yeast Komagataella phaffii (formerly Pichia pastoris); putative helices placed in the cryo-EM map; also called KpTaf8; source: endogenous, K. phaffii nuclear extract; co-purified in TFIID by SBP-tagged Taf2 (streptavidin beads, sucrose gradient)
B3: Taf4, subunit of Komagataella phaffii TFIID (natural protein, UniProt F2QWX2 1-411, looked up)
chain: MSSTPDGSTPVDSGKRTSDQIDVGEYKRVKVERGNRSETVDSGLIDMSNSVGASLDIPTPDQLNPTNTGVQTPSLHQPGESISAHSLSLPGETSVGGSTGISRENTPQVRPDVSVSQSSSQLHQRNESFPGLSVSKSTTSLNKDTMFDNRKRLLGNNGANPNGQKSSDPEKLSDALTAAGVDLKEEESLLSQSTVIQQSRRQLSTLSSFLHPVHLATFMRRVMENNGLRNYVDHDTELLSYMSSACEGFMAGILTDSVILANHRKRPIKSKLKHSTTPRSDVSKVLRDIATKQKEREEQRVQKRVTLDIEGQEDDGKSKQDNEEVLHRAANATAMMMTSKSKKKKYSWMNADSGAQGGKTNSVLARGDSGIRYRDAREEPGLVLRDLLGALEGRRMCVANTVVKGYARMND
notes: Taf4, TFIID subunit of the yeast Komagataella phaffii (formerly Pichia pastoris); histone-fold domain modelled in the cryo-EM map; source: endogenous, K. phaffii nuclear extract; co-purified in TFIID by SBP-tagged Taf2 (streptavidin beads, sucrose gradient)
B4: Taf6, subunit of Komagataella phaffii TFIID (natural protein, UniProt F2QMA7 1-485, looked up)
chain: MSKNSQRSSIPTSHTLWSPSDTVKDAAESLGIFNLNEEAAKNLAMDIEYRIHEILDQASKFMRHGKRRTLHTSDIDRALKVLNLEPLYGYDVSRPLVFKEALVGAGQNLYYVDDDEVDFEKLINEPLPKVPRFSTFTAHWLAIEGVQPAIPQNPSPNDIKNILPINRGSMENMFSLINDEVKEDTNEEFTSTGPSVSSNISNQKQGLEVKPLVKHVLSRELQLYFDKIVEVLLNQEETKEAELLRNSALQSVRADPGLHQLVPYFIQFISETITKNLKNISLLSTMLELIYSLLMNESLFLEPYVHAIIPCILTLLLAKKIGNVDDELQKQQQLALRELSASLLERVIEDFGSSYSTLKPRITRTLLRAFVSVNNTTPGTQYGALLGLRGLGSEVIRIVVLGNVINWSSTFLEKLQQEDQVFLIDTLIETLRVLTKEGKLVKDMKTENGIDNERLKQRVGDLIADRIQACDDAQDIYWGIFFGEV
notes: Taf6, TFIID subunit of the yeast Komagataella phaffii (formerly Pichia pastoris); HEAT repeats (residues 213–486) and histone-fold domain modelled in the cryo-EM map; two copies in holo-TFIID; source: endogenous, K. phaffii nuclear extract; co-purified in TFIID by SBP-tagged Taf2 (streptavidin beads, sucrose gradient)
B5: Taf12, subunit of Komagataella phaffii TFIID (natural protein, UniProt F2QSK7 1-609, looked up)
chain: MNQPPNQPQDNDSQVSSSGMQGGNSMNYSSSAPVNGAGQGPQPQQNSQGQNGKKPVGMQQAQIQLLARRYQLEMQKAHQLGPQTPQGAEHLQTATKIKHVLLSYQQQRQRQQGQVQGQGLSQPQGQNQAQGRVQQQTQGLSPDPGSHQGSPQFQQPHQVMMGSAQTAGTSIANPQAQSNISSQVSQMAAAKVNSASPPIPPKTVGTPTGTPVGTQPRGQVTIQQFQQVKSILEEFEKKLRTIEAAKRDQNLPEETLQKLLRQEAILKQRYAQTKATAYQMSQHLQRQQQALRAASAESAEVYVTGSASSPNMNVYNQQILTQQPQQQLQQQQLHQPQPQQPQPARQSPHLLIHQQQQQQQQQQQQQQQQQQHPVTHRPSNVSQTMPQPSQPLQSSTPSSAVGRNQSPGATPVTSVNAAAKPSPGTSSTSTLINQHILKPAPPPTEIPARLQVKPPQPAAMKIPNRPTLLGGSAISQPSLTTPVSIRPPPLEMEGDHVLQKRKLKELLRNVGADEGDGETVIDGDVEELLLDLADEFVTSVTSFACRLAKHRKVDNIDMRDVQLHLERNWNIRVPGYASDEIRSVRKFQPTAGYNQKVQGVAISKSVNKN
notes: Taf12, TFIID subunit of the yeast Komagataella phaffii (formerly Pichia pastoris); histone-fold domain modelled in the cryo-EM map; source: endogenous, K. phaffii nuclear extract; co-purified in TFIID by SBP-tagged Taf2 (streptavidin beads, sucrose gradient)
B6: Taf5, subunit of Komagataella phaffii TFIID (natural protein, UniProt F2QWD3 1-722, looked up)
chain: MKQEPGDSSDKSAPSGSITPQPKPPQQANVSNQQPQKPQQFSAADLNRIVLEYLNKKGYHKTESMLRMESSHIPAPPTNIPTPQTTNISRPTAPGRAPEYSDDPATIKRGYSILKSWCESSLDFYRPELEKFLYPVFVHCYLDLIARGYPSHAREFYDKFSKDHSVLHEYEISKLGGISLKEHLQENDVAKIFRSHKFKVLIGRTTFNLLLYFLNENDAVGGGVVLRLINQYIEPVITTEAIAVEREGELNLSEGIVELHTLNNTSIGGEQREISSVDAFNKKPVKLGKLQVDPEYSKELEAELKLKDEHEQAAQKKVSTTLLEEYRENFKVDPSDENNPSKDTLPLPLKSAQDLRNDIAMIQDSRAKIKLSAAQASLPSVCMYTFHNTNNDLTCLKFNDDSTMVASGFQDSFIKLWSIDGSPLRSLLKNDPYNQQNNDGVAVKGSRRLVGHSGAVYGVDFSPDNRYLISCSEDKTVRLWSLDTYTCLVSYKGHSSSVWDVKFSPMGHYFATASHDQTARLWSCDHIYPLRIFAGHLNDVDCVEFHPNSTYLFTGSSDKTARMWDIARGECVRVFMGHSGAINCLAVSPDGRWLASAGEDSVVCLWDISTGRRIKAMRGHGRSSIYSLAFSREGTVLVSTGADNSVRVWDVKKNTNSPSAQPEPINDVTAQGIQKKTEDLRRRKEIVATNDHMSVYFTKKTPVYTVHFTRRNLCLAGGVFGG
notes: Taf5, TFIID subunit of the yeast Komagataella phaffii (formerly Pichia pastoris); WD40 repeat and NTD (residues 99–243) modelled in the cryo-EM map; two copies in holo-TFIID; source: endogenous, K. phaffii nuclear extract; co-purified in TFIID by SBP-tagged Taf2 (streptavidin beads, sucrose gradient)

The target in series [1] is T1, Taf2 with C-terminal streptavidin-binding peptide tag, subunit of Komagataella phaffii TFIID (Komagataella phaffii, UniProt F2QRH9 1-1571).
T1 construct: Taf2, TFIID subunit of the yeast Komagataella phaffii (formerly Pichia pastoris); residues 36 to 1194 modelled in the cryo-EM map; bait of the purification; also called SBP-tagged Taf2; source: K. phaffii strain with SBP-tagged Taf2, nuclear extract; purified (streptavidin beads, biotin elution, sucrose gradient)
As to the kind of experiment: affinity purification with mass spectrometry; TFIID purified from K. phaffii nuclear extract by the SBP tag at the C-terminus of Taf2 (streptavidin beads, 250 mM potassium acetate, elution with 10 mM biotin, 10–30% sucrose gradient); SDS-PAGE and mass spectrometry of the purified complex. To be noted: partners not purified.

In series [2] the target is T1, Taf2 with C-terminal …. As to the kind of experiment: cross-linking; 50 µg purified TFIID, 3 mM BS3, 2 h at 25 °C; trypsin, SCX fractionation, Orbitrap Fusion MS; pLink and Nexus, 5% FDR. Particulars: both partners purified.
Series [3] deals with B5. The series is described as above. Particulars: both partners purified.
The target of series [4] is B6. The series is described as above. Particulars: both partners purified.
Series [5] concerns the molecule itself. The experiment in a line: cryo-EM structure; purified TFIID (0.4 µM) with two-fold excess of TFIIA and 2.5–3-fold excess of pGAP promoter DNA, cross-linked with 0.1% glutaraldehyde; focused refinement of the lobes (Taf2 lobe 4.5 Å, Twin lobe 4.8 Å); homology models docked.

As to B1, the binding result in series [1] was “binds”.

On to B2, for which the binding result in series [2] was “binds”.

Consider B3, for which the binding result in series [3] and in series [4] was “binds” each time.

For the molecule B4, the stoichiometry N (usually a count of units in the complex or per binding partner) in series [5] was found to be 2.

As to B5, in series [4], the binding result is reported as “binds”.

As for B6, in series [5], the “stoichiometry N” value turned out to be 2.
